Measurements taken from patent US20170158742A1 (NATIONAL UNIVERSITY OF SINGAPORE, published 2017).

B1: Signal recognition particle 19kDa (other)
chain: MACAAARSPADQDRFICIYPAYLNNKKTIAEGRRIPISKAVENPTATEIQDVCSAVGLNVFLEKNKMYSREWNRDVQYRGRVRVQLKQEDGSLCLVQFPSRKSVMLYAAEMIPKLKTRTQKTGGADQSLQQGEGSKKGKGKKKK
notes: also called SRP19
B2: DIM1 dimethyladenosine transferase 1 homolog (S. cerevisiae) (enzyme)
chain: MPKVKSGAIGRRRGRQEQRRELKSAGGLMFNTGIGQHILKNPLIINSIIDKAALRPTDVVLEVGPGTGNMTVKLLEKAKKVVACELDPRLVAELHKRVQGTPVASKLQVLVGDVLKTDLPFFDTCVANLPYQISSPFVFKLLLHRPFFRCAILMFQREFALRLVAKPGDKLYCRLSINTQLLARVDHLMKVGKNNFRPPPKVESSVVRIEPKNPPPPINFQEWDGLVRITFVRKNKTLSAAFKSSAVQQLLEKNYRIHCSVHNIIIPEDFSIADKIQQILTSTGFSDKRARSMDIDDFIRLLHGFNAEGIHFS
notes: also called DIMT1
B3: Vaccinia related kinase 1 (enzyme)
chain: MPRVKAAQAGRQSSAKRHLAEQFAVGEIITDMAKKEWKVGLPIGQGGFGCIYLADMNSSESVGSDAPCVVKVEPSDNGPLFTELKFYQRAAKPEQIQKWIRTRKLKYLGVPKYWGSGLHDKNGKSYRFMIMDRFGSDLQKIYEANAKRFSRKTVLQLSLRILDILEYIHEHEYVHGDIKASNLLLNYKNPDQVYLVDYGLAYRYCPEGVHKEYKEDPKRCHDGTIEFTSIDAHNGVAPSRRGDLEILGYCMIQWLTGHLPWEDNLKDPKYVRDSKIRYRENIASLMDKCFPEKNKPGEIAKYMETVKLLDYTEKPLYENLRDILLQGLKAIGSKDDGKLDLSVVENGGLKAKTITKKRKKEIEESKEPGVEDTEWSNTQTEEAIQTRSRTRKRVQK
notes: also called VRK1

Molecular target: biotinylated full-length Dengue virus capsid (DENV C) protein (Dengue virus serotype 2 (NGC strain))
Test: ELISA, coated bought protein, biotinylated DENV C as probe, streptavidin-HRP

**Q.** Does B1 bind?
**A.** binds

**Q.** Does B2 bind?
**A.** binds

**Q.** Does B3 bind?
**A.** binds
